{"source": "patent US6699839B1", "about": "“Lantibiotic from Streptococcus mutans, method of production and use thereof” (Universite Laval, priority 1997, dated 2004)", "key": {"[1]": {"tested_on": "Clostridium bifermentants", "experiment": "Growth inhibition", "type": "cell-based"}, "[2]": {"experiment": "Heat stability of activity", "type": "physicochemical"}, "[3]": {"tested_on": "Flavobacterium capsulatum", "experiment": "Growth inhibition", "type": "cell-based", "details": "a Gram-negative strain"}, "[4]": {"tested_on": "Staphylococcus epidermidis 1656", "experiment": "Sensitivity titer of multi-drug resistant staphylococci clinical isolates", "type": "cell-based", "details": "resistant to AM-K-S-CF-E-P-Cl-TE", "procedure": "(§1) Trypticase Soy Agar (Difco Laboratories, Detroit, Mich.) plates enriched with 0.3% yeast extract were overlaid with 5 ml of melted TSAYE containing a standardized suspension (0.2 ml of an exponentially growing culture at an optical density of 0.1 at 600 nm) of Micrococcus luteus ATCC 272 (ATCC, Rockville, Md.). In order to assess the activity of mutacin samples, two-fold dilutions were prepared in 0.11% TFA (Sigma Chemical Co., St. Louis, Mo.) and 5 μl of each dilution deposited on top of the indicator plates. Mutacin activity was expressed in arbitrary units, which correspond to the reciprocal of the last dilution giving a clear inhibition zone against M. luteus after 24 h of incubation at 37° C. under aerobic conditions (Parrot et al., 1989, Can. J. Microbiol. 35:366-372).\n(§2) The sensitivity of multi-drug resistant strains to mutacin B-Ny266 purified to homogeneity was assessed. In parallel the sensitivity of these strains to nisin was determined."}, "[5]": {"tested_on": "Staphylococcus epidermidis 3176", "experiment": "Sensitivity titer of multi-drug resistant staphylococci clinical isolates", "type": "cell-based", "details": "resistant to AM-GM-K-CF-E-P-Cl", "procedure": "as §1, §2"}, "[6]": {"tested_on": "Staphylococcus haemolyticus 2344", "experiment": "Sensitivity titer of multi-drug resistant staphylococci clinical isolates", "type": "cell-based", "details": "resistant to AM-K-S-CF-E-P-Cl-TE", "procedure": "as §1, §2"}, "[7]": {"experiment": "Stability of activity to enzymes", "type": "physicochemical"}, "[8]": {"experiment": "Polarity calculation from RP-HPLC elution", "type": "physicochemical", "details": "calculated from elution at 33.3% acetonitrile, RP-HPLC C18 (Snyder formula)", "procedure": "The polarity was calculated from the percentage of acetonitrile at which the substance eluted according to the formula given by Snyder (Snyder, L. R., 1978, Chromatogr. Sci. 16:223-234)."}, "[9]": {"tested_on": "Micrococcus luteus ATCC 272", "experiment": "Sensitivity titer on a lawn of the tested strain (control strain)", "type": "cell-based", "details": "Micrococcus luteus ATCC 272 (control); antibiotic resistance: None", "procedure": "as §1, §2"}, "Neisseria subflava": {"tested_on": "Neisseria subflava", "experiment": "Growth inhibition", "type": "cell-based"}, "Bacillus cereus": {"tested_on": "Bacillus cereus", "experiment": "Growth inhibition", "type": "cell-based"}}}
{"substance": "Mutacin B-Ny266: type A lantibiotic produced by Streptococcus mutans B-Ny266; F-K-A-W-U-F-A-Abu-P-G-A-A-K-O-G-A-F-N-U-Y-A-SADC", "values": [{"measurement": "growth inhibition", "setting": "[1]", "result": "inhibits the growth"}, {"measurement": "resistance to temperature", "setting": "[2]; 100° C. for 30 min", "result": "resistant"}, {"measurement": "activity after heat treatment", "setting": "[2]; 121° C. for 30 min", "result": "destroyed"}, {"measurement": "growth inhibition", "setting": "[3]", "result": "inhibit"}, {"measurement": "titer (highest dilution producing an inhibitory zone on a lawn of the tested strain)", "setting": "[4]", "result": 16}, {"measurement": "titer (highest dilution producing an inhibitory zone on a lawn of the tested strain)", "setting": "[5]", "result": 16}, {"measurement": "titer (highest dilution producing an inhibitory zone on a lawn of the tested strain)", "setting": "[6]", "result": 16}, {"measurement": "activity after enzyme treatment", "setting": "[7]; alpha-chymotrypsin", "result": "destroyed"}, {"measurement": "resistance to enzymes", "setting": "[7]; many enzymes", "result": "resistant"}, {"measurement": "activity after enzyme treatment", "setting": "[7]; papain", "result": "destroyed"}, {"measurement": "activity after enzyme treatment", "setting": "[7]; pronase E", "result": "destroyed"}, {"measurement": "activity after enzyme treatment", "setting": "[7]; proteinase K", "result": "destroyed"}, {"measurement": "activity after enzyme treatment", "setting": "[7]; trypsin", "result": "destroyed"}, {"measurement": "polarity", "setting": "[8]", "result": 8.067}, {"measurement": "titer (highest dilution producing an inhibitory zone on a lawn of the tested strain)", "setting": "[9]", "result": 64}, {"measurement": "growth inhibition", "setting": "Neisseria subflava", "result": "inhibits the growth"}, {"measurement": "growth inhibition", "setting": "Bacillus cereus", "result": "inhibits the growth"}]}
